# Assay results published in the nanobody polyreactivity screen of Harvey et al. (2022).
# Experiment: yeast display, Sf9 membrane polyspecificity reagent, FACS + sequencing; frameworks hold sequencing errors
# Method in brief: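 Genes from sorted yeast were amplified by colony PCR, read by MiSeq 2 × 250 sequencing and filtered on CDR length. These cells carried a synthetic nanobody library in Saccharomyces cerevisiae BJ5465 and were sorted by FACS into low and high (top ~1%) gates on anti-HA and streptavidin fluorescence. Polyreactivity is labelled according to the gate of origin.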
row,Sequence,polyreactivity (PSR sort gate)
1,QVQLVESGGGLVQAGGSLRLSCAASGRTQTRYTMGWYRQAPGKERELVATISRSGGNTHYADSLKGRFTISRDNAKNTVYLQMNSLKPEDTEVYYCNAVRYAIYGYDYWGQGTQVTVSS,high polyreactivity
2,QVQLVESGGGLVQAGGSLRLSCAASGYTFSDNAMGWYRQAPGKEWELVAAISTGGSTNYADSVKGRFTISRDNAKNTVYLQMNSLKPEDTAVYYCATDAWSFGYNYVPLHYDYWGQGTQVTVSS,low polyreactivity
3,QVQLVESGGGLVQAGGSLRLSCAAAGSTFSYYTMGWYRQAPGKERELVAAITRSGGRTYYADSVKGRFTISRDNAKYTVYLQMNSLKPEDTAVYYCAREYYPDWGQGTQVTVSS,high polyreactivity
4,QVQLVESGGGLVQAGGSLRLSCAASGRIFRYYTMGWYRQAPGKVRELVAAITRRGGITNYADSVTGRFTISRDNAKNTVYLQMNSLKPEDTAVYYCAAKSVSQGDDYWGQGTQVTVSS,high polyreactivity
5,QVQLVESGGGLVQAGGSLRLSCAASGRIFYFNAMGWYRQAPGQERELVADISSGGRTNYADSVKGRFTISRDNAKNTVYLQMNSLKPEDTAVYYCNAEPYTSSGGYRGYDFDSWGQGTQVTVSS,low polyreactivity
6,QVQLQESGGGLVQAGGSLRLSCAASGTILYSLGMGWYRQAPGKRREFVASITWGTTTNYAESVKGRFTISRDNAKNTVYPQMNSLKPEDTAVYDCAAPPFGDSSYHYWGQGTQVTVSS,low polyreactivity
7,QVQLVESGGGLVQAGGSLRLSCAASGLIFRPYAMGWYRQAPGKERELVAALTSGGSTDYADSVKGRFTISRDNAKNTVYLQMNSLKPEDTAVYYCNADIYPHDGYPWQGDYDYWGQGTQVTVSS,low polyreactivity
8,QVQLVESGGGLVQAGGSLRLSCAASGSIFNLYAMGWYRQAPGKERELVAGIRWSGGRTYYADSVKGRFTISRDNAKYTVYLQMNSLKPEDTAVYYCAAEYRSWRYTGYSYYYWGQGTQVTVSS,high polyreactivity
9,QVQLVESGGGLVQAGGSLRLSCAASGRIFSNNVMGWNRQGPGKERELVATISTDGRTNYADSVKGRFTISRDNAKNTVYLQMNSQKPEDTAVSYCAATGVTLLLSSKSDYWGQGTQVTVSS,low polyreactivity
10,QVQLVESGGGLVQAGGSLRLSCAASGSTFAGNAMGWYRQAPGKERELFAAITFSGGRTDYADSVKGRFTISRDNAKNTVYLQMNSLKPEDTAVYYCAAPADVTVHYLNYYWGQGTQVTVSS,low polyreactivity
11,QVQLVESGGGLVQAGGSLRLSCAASGRIFPEYAMGWYRQAPGKERELVAAISSGDNTTYADSVKGRFTISRDNAKNTVYLQMNSLIPEDTAVYYCNAGSCTTGQGGPIIEYGYWGQGTQVTVSS,low polyreactivity
12,QVQLVESGGGLVQAGGSLRLSCAASGRTFLNNAMGWYRQAPGKERELVAAITKSGGSTYYADSVKGRFTISRDNAKNTVYLQMNSLKPEDTAVYYCAAARRYYTYYREDYYYWGQGTQVTVSS,high polyreactivity
13,QVQLVESGGGLDQAGGSLRLSCAASGSTFPKYGMGWYRQSPGKDREFVARINWNGGGTYYADSVKGRFTISRDNAKNTVYLQMNSLKPEDTAVYYCAADYEYYYFWDYYWGQGTQVTVSS,low polyreactivity
14,QVQLVESGGGLVQAGGSLRLSCAASGRTFYYYAMGWYRQAPGKEREFVAAISWSGVRTSYADSVKGRFTISRDNAKNTVYLQMNSQKPEDTAVYYCNVAVAFYYDYWYSTYLTYEYDYWGQGTQVTVSS,high polyreactivity
15,QVQLVESGGGLVQAGGSLRLSCAASGRIFNGNAMGWYRQAPGKESELVAAISTSGGRTYYADSVKGRFTISRDNAKNTVYLQMNSLKPEDTAVYYCAARYFRRDYIDYDLWGQGTQVTVSS,low polyreactivity
16,QVQLVESGGGLVQAGGSLRLSCAASGITFAYYVMGWYRQAPGKERELVAAITRSGDITSYADSVKGRFTISRDNAKNTVYLQMNSMKPEDTAVYYCNARRGYQSRRYNYWGQGTQVSVSS,high polyreactivity
17,QVQLVESGGGLVQAGGSLRLSCAASGNIFGLNAMGWYTQAPGKEREFVAAITKTGGSTYYADSVKGRFTISRDNAKNTVYLQMNSLKPEDTAVYYCAARGLPRGYPYEYGYWGQVTQVTVSS,high polyreactivity
18,QDQLVDSGGGLVQAGGSLRLSCAASGRSFRNNPMGWYRQAPGKERELVAAITSSGASTYYADSVKGRFTISRDNAKNTVYLQMNSLKPEDTAVYSCAAATVRQFRSSLDYWGQGTQVTVSS,high polyreactivity
19,QVQLVESGGGLVQAGGSLRLSCAPSGSTFYKNAMGWYRQAPWKERELVAGISRRGGRTYYADSVKGRFSISRDNAKNTVYLQMNSLKPEDTAVYYCNARLLSGPGYDYWGQGTQVTVSS,low polyreactivity
20,QVQLVESGGGLVQAGGSLRLSCAASGSIFANYAMGWYRQAPGKERELVAAISKRGGSTNYADSVKGRFTISRDNAKNTVYLQMISLKPEDTAVYYCNVKPGSRRVLAAAYGYWGQGTKVTVSS,low polyreactivity
21,QVQLVESGGGLVQAGGSLRLSCAASGRIFGYYAMGWYRQAPGKERELVARIRRRGGSTYYADSVKGRFTISRDNAKNTVYLQMNSLKPEDTAVYYCAAVYYPLVGKRYYYWGQGTQVTVSS,high polyreactivity
22,QVQLVESGGGLVQAGGSLRLSCAASGSIFGDYVMGWYRQAPGKERELVAAITSATSTYYADSVKGRFTISRDNAKNTVYLQINSLKPEDTAVYYCNADATYPLWPNIWYDYDYWGQGTQVTVSS,low polyreactivity

row,Sequence,polyreactivity (PSR sort gate)
1,QVQLVESGGGLVQAGGSLRLSCAASGRTLSANAMGWYRQAPGKERELVATISTRGGRTYYADSVKGRFTISRDNAKNTVYLQMNSLKPEDTAVYYCAVTIRAKYTLKEDYWGQGTQVNVSS,low polyreactivity
2,QVQLVESGGRIVQAGGSLRLSCAASGRLFDRYAMGWYRQAPGQERELVAAISWSAGSTYYADSVKGRFTISRDNAKNTVYLQMNSLKPEDTAVYYCAVPARGTFLLRDGGRAEFDYWGQGTQVTVSS,low polyreactivity
3,QVQLVESGGGLVQAGGSLRLSCAASGSIFYSYAMGWYRQAPGKERELVAAINWSGGSTYYADSVKGRFTISRDNAKNTVYLQMKSLKPEDTAVYYCAADYGWGPIYDYWGQGTQVTVSS,low polyreactivity
4,QVQLVESGGGLVQAGGSLRLSCAASGSIFGSNAMGWYRQAPGKEREFVAAIDWGGTITYYADSVKGRFTISRDNAKNTVYLQMNSLKPEDTAVYYCAADPTYPYGYWGQGTQVTVSS,low polyreactivity
5,QVQLVETGGGLVQAGGSLRLSCAASGSTFYNYAMGWYRQAPGKEREFVAAISWGGGSTRYADSVKGRFTISRDYAKNTVYLQMNSLKPEDTAVYYCAARYPHYDYYYWGQGTQVTVSS,high polyreactivity
6,QVQLVESGGGLVQAGGSHRLSCAASGRTFYRNAMGWYRPAPGKERELVAAITSGGGTTYADSVKGRFTISRDNAKNTVYLQMNSLKPEDTAVYYCAKRYNGRFRLGYEYWGQGTQVTVSS,high polyreactivity
7,QVQLVESAGGLVQAGGTLSLSCAASGSTFYNYAMGWYRQAPGTETELVAAISSGGSTNYADSVKGRFTISRDNAKNTVYLQMNSLKPEDTAVYYCARRHRVYPSRIGHDYWGQGTQVTVSS,low polyreactivity
8,QVQLEESGVGLVQAGGSLRLSCAASGYTFDYYDMAWYRQAPGKERELVAAISCSGGRTYYADSVKGRFTISRDNAKNTVYLQMNSLKPEDTAVYYCNTRYGALGKGGMDYWGQGTQVTVSS,high polyreactivity
9,QVQLVESGGGLVQAGGSLRLSCAASGSTFYINDMGWYRQAPGKERELVASISWRGGSTYADSVKGRFTISRDNAKNTDYLQMNSLKPEDTAVYYCAAEFDVYSHHWITSYDYWGQGTQVTVSS,high polyreactivity
10,QVQLVESGAGLVQAGGGLRLSCAASGFIFNLYAMGWYREAPGKERELVAAISSGGNTHYADSVKGRFTISRDNAKNTVYLQMNSLKPVDTAVYYCNADVNHVNKAWHVSFHQGYYWGQGTQVTVSS,low polyreactivity
11,QVQLVESGGGLVQAGGSLRLSCAASGIIFQWYAMGWYSQAPGKERELVAAINSDGSTYYADSVKGRFTISRDNAKNTVYLQMNSLIPEDTAVYYCAADFIPLIGFDYWGQGTQVTVSS,low polyreactivity
12,QVQLVESGGGLVQAGGSLRLSCAASGFTFLINAMGWYRQAPGKERELVAAIRSGGSTNYADSVKGRFTISRDNAKNTVYLQMNSLKPEDTAVYYCAARRYYPYKYRYGYWGQGTQVTVSS,high polyreactivity
13,QVQLVESGGGLVQAGGSLRLSCAASGSIFGYNAMGWYRQAPGKERELVAAINYNGGRTYYADSVKGRFTISRDNAKNTVYLQMNSLKPEDTAVYYCATQGRSLYYRYDYWGQGTQVTVSS,high polyreactivity
14,QVQLAESGGGLVQAGGSLRLSCAASGRIFYGYTMGWYRQAPGKERELVAAITWSGGSTYYADSVKGRFTISRDNAKNTVYLQMNSLKPKDTAVYYCAATLGNAADYDYGYWGQGTQVTVSS,high polyreactivity
15,QVQLVESGGGLVQAGGSLRLSCAASGSTFWYYAMGWYRQAPGKERELVAAISRSTGSTYYADSVKGRFTISRDNAKNTVYLQMNSLKPEDTAVYYCNKDPVPSFFIPEIGYSEYDYWGQGTQVTVSS,low polyreactivity
16,QVQLVESGGGLVQAGGSLRLSCAASGFTFRYYAMGWYRQAPGTERELVAGITRSGGSTYYADSVKGRFTISRDNAKNTVYLQMNSLKPEDTAVYYCAAYRSIYGTRAPREFESWGQGTQVTVSS,high polyreactivity
17,QVQLVESGGGLLQAGGSLRLSCAASGSTFVTNDMGWYRPAPGKERELVAAISSGSSTNYADSVKGRFTISRDNAKNSVYVHMNSLKPEDTAVYYCAADSLKRYDYWGQGTQVTVSS,low polyreactivity
18,QVQLVESGGGLVQAGGSLRLSCAASGRTNWTYVMGWYRQAPGKERELVAAISRSGSSTYYADSVKGRFTISRDNAKNTVYLQMNSLKPEDTAVYYCNNVDGTTLDDHYMDYWGQGTQVTVSS,low polyreactivity
19,QVQLVESGGGLVQAGGSLRLSCAASGIIFTYNAMGWSRQAPGKERELVAAISWRGGSTYYADSVKGRFTISRDNAKNTVYLQMNSLKPEDTAVYYCARYGTDHRLGYGYWGQGTQVTVSS,low polyreactivity
20,QVHLLESGGALVQAGGRLRLSCAASGRIFKTYAMGWYRQAPGKELEFVAAITASGGRTYYADSVKGRFTISRDNAKNTVYLQMNSLIPEDTAGYYCNARLVYYSYEEMDYWGQGTQVTVSS,low polyreactivity
21,QVQLVESGGGLVQAGGSLRLSCAASGFAFSYYAMGWYRQAPGKEREFVASIDWSGGSTYYADSVKGRFTISRDNAKNTVYLQMNSLKAEDTAVYYCAAELDYFPGYDYWGQGTQVTVSS,low polyreactivity
